Measurements taken from paper PMC7506613.
pKd: −log10 of the molar value.

Target: T1, IIA2 peptide (lambda-Cro mutant, helix-turn-helix) (phage lambda (designed mutant)) (UniProt P03040)
T1 sequence: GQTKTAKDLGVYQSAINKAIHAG
Assay: fluorescence titration (520 nm)
Conditions: fluorescein-labeled peptide; Fluorescence: 20 uM (so in the source) phosphate buffer, room temperature, 15 min; CD: 20 mM phosphate pH 7.4 (stated for peptide CD), 20 uM each; microarray: PBS …

Sequence	pKd
GCAATGGTACGGTACTTCCGGGCTGGCCAGATCAGACCCCGGATGATCATCCTTGTGAGAACCACAAAAGTGCACGCTACTTTGCTAA [SA23 aptamer]	5.79
TCCGGGCTGGCCAGATCAGACCCCGGA [SA23 short2]	5.02
TCCGGGG (double strand) [SA23 short1]	5.24
